Assays:
Details in all cases: protein: recombinant; tags: MBP (pMAL-C2); label: 32P 5' end; blunt
rZmCCA1b [1] = target: T1, rZmCCA1b (Zea mays B73, UniProt K7U156 1-720); assay: EMSA; 25 mM HEPES-KOH pH 7.5, 75 mM KCl, 2.5 mM DTT, 10% glycerol, 1.25 ng poly-dIdC; 20 fmol probe, 0.5-2 pmol protein; 10 min room temperature then 20 min on ice with probe; 5% native PAGE
rZmCCA1a = rZmCCA1a (Zea mays B73, UniProt B6SPA3 129-718); assay: EMSA; 1 pmol protein; 25 mM HEPES-KOH pH 7.5, 75 mM KCl, 2.5 mM DTT, 10% glycerol, 1.25 ng poly-dIdC; 20 fmol probe, 0.5-2 pmol protein; 10 min room temperature then 20 min on ice with probe; 5% native PAGE
rZmCCA1a, sequence (B6SPA3 entry or part of it): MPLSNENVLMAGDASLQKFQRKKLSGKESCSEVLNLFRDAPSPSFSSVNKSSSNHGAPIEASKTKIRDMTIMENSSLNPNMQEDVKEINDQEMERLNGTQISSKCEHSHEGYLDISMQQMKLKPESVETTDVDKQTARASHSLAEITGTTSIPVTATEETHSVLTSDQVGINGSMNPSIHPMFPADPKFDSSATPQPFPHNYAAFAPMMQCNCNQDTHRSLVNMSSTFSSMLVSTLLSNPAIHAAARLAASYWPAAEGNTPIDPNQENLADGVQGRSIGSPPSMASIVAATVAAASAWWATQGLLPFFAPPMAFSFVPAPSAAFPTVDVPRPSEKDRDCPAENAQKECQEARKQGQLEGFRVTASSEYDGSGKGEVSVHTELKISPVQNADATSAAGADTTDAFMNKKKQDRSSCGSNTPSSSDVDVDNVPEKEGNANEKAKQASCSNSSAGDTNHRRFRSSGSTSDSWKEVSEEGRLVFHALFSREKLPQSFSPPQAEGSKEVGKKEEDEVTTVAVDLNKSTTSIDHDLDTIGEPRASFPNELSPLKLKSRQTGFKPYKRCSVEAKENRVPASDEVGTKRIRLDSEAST

rZmCCA1b [2] = target: T1, rZmCCA1b; assay: EMSA; self-competed by 25-100X unlabeled DNA; 25 mM HEPES-KOH pH 7.5, 75 mM KCl, 2.5 mM DTT, 10% glycerol, 1.25 ng poly-dIdC; 20 fmol probe, 0.5-2 pmol protein; 10 min room temperature then 20 min on ice with probe; 5% native PAGE

T1 sequence (K7U156 entry or part of it): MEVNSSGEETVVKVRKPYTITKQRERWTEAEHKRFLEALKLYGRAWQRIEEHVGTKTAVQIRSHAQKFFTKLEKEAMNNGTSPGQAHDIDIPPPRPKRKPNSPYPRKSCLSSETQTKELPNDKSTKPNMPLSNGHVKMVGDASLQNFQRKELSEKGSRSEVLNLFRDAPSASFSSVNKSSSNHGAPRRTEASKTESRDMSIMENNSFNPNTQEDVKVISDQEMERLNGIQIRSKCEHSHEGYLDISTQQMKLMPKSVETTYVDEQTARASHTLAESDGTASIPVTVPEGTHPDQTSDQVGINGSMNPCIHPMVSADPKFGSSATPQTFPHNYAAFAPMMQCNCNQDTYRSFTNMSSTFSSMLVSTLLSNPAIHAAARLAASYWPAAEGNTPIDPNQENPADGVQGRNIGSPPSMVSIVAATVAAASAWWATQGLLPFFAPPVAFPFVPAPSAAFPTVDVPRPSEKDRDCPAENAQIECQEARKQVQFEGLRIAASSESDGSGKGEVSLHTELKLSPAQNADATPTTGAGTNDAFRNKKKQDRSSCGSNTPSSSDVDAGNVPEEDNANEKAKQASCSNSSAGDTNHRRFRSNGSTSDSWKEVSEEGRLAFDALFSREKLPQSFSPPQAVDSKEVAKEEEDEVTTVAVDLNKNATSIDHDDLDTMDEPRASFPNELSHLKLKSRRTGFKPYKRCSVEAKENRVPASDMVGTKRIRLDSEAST

B1: GRMZM2G129513 promoter probe (dsDNA)
DNA 1: ATTAAATATAAAAATATCTAAATTCATAA
DNA 2: TTATGAATTTAGATATTTTTATATTTAAT
binding result (rZmCCA1b [1]): binds

B2: ZmTOC1a promoter probe (dsDNA)
DNA 1: GGCGAGTTTTAGATATTTTCACCCGCTCC
DNA 2: GGAGCGGGTGAAAATATCTAAAACTCGCC
binding result (rZmCCA1a): no binding
binding result (rZmCCA1b [2]): binds

B3: GRMZM2G033885 promoter probe (dsDNA)
DNA 1: TCAGCACTGAAAAATATCTGAGGTTGAAA
DNA 2: TTTCAACCTCAGATATTTTTCAGTGCTGA
binding result (rZmCCA1b [1]): binds

B4: ZmPRR59 promoter probe (dsDNA)
DNA 1: CTCTTTAAAAAAAAATCTTCATTTAAGG
DNA 2: CCTTAAATGAAGATTTTTTTTTAAAGAG
binding result (rZmCCA1a): no binding
binding result (rZmCCA1b [2]): binds

B5: gi1 promoter probe (dsDNA)
DNA 1: GCATCGCGGAAAAAATCTTTTTCTCGCC
DNA 2: GGCGAGAAAAAGATTTTTTCCGCGATGC
binding result (rZmCCA1a): no binding
binding result (rZmCCA1b [2]): binds
